Measurements reported in article PMC10268231 (Nature, 2021).

Columns and labels:
[1] = molecular target: T1, CTC1;STN1;TEN1;POLA1 (p180);POLA2 (p70);PRIM1 (p49);PRIM2 (p58) (human;human;human;human;human;human;huma …, UniProt Q2NKJ3;Q9H668;Q86WV5;P09884;Q14181;P49642;P49643 …, ||||||); assay: cryo-EM
[2] = molecular target: T1, CTC1;STN1;TEN1;POLA1 (p180);POLA2 …; assay: cryo-EM; remark: listed apart in the source
[3] = molecular target: T1, CTC1;STN1;TEN1;POLA1 (p180);POLA2 …; assay: negative-stain EM

TTAGGGTTAGGGTTAGGGTTAGGGTTAGGGTTAGGG (ssDNA) [6xTEL]: binds [1].

TTAGGGTTAGGGTTAGGG (ssDNA) [3xTEL]: binds [2].

TTAGGGTTAGGGTTA (ssDNA) [(TTAGGG)2TTA 15-nt template]: binds [3].
